Drawing on US10788489, this text covers Recovery and Calculated concentration for one molecule.

The target of test [1] is anti-histidine-tag polyclonal antibody (Bethyl Laboratories, Inc., USA). Description: competitive immunochromatography, 1.1 µg/mL FBA added; calculated against added concentration, ATG-8 standard curve as reference.
The target is the same in test [2]. Nature of the test: competitive immunochromatography, 1.1 µg/mL FBA added; concentration read from the ATG-8 standard curve.
The target is the same in test [3]. Nature of the test: competitive immunochromatography, 30 µg/mL FBA added; concentration read from the ATG-8 standard curve.
For test [4] the target is unchanged. Nature of the test: competitive immunochromatography, 3.3 µg/mL FBA added; calculated against added concentration, ATG-8 standard curve as reference.
For test [5] the target is unchanged. Description: competitive immunochromatography, 0.37 µg/mL FBA added; calculated against added concentration, ATG-8 standard curve as reference.
The target is the same in test [6]. Description: competitive immunochromatography, 30 µg/mL FBA added; calculated against added concentration, ATG-8 standard curve as reference.
The target is the same in test [7]. Description: competitive immunochromatography, 3.3 µg/mL FBA added; concentration read from the ATG-8 standard curve.
The target is the same in test [8]. Description: competitive immunochromatography, 10 µg/mL FBA added; concentration read from the ATG-8 standard curve.
For test [9] the target is unchanged. Nature of the test: competitive immunochromatography, 10 µg/mL FBA added; calculated against added concentration, ATG-8 standard curve as reference.
Test [10] shares this target. Description: competitive immunochromatography, 0.37 µg/mL FBA added; concentration read from the ATG-8 standard curve.

B1: fructose bisphosphate aldolase comprising histidine-tag (Cusabio, USA) (enzyme, UniProt P04075 2-364, looked up, species assumed)
Fructose-bisphosphate aldolase A: PYQYPALTPEQKKELSDIAHRIVAPGKGILAADESTGSIAKRLQSIGTENTEENRRFYRQLLLTADDRVNPCIGGVILFHETLYQKADDGRPFPQVIKSKGGVVGIKVDKGVVPLAGTNGETTTQGLDGLSERCAQYKKDGADFAKWRCVLKIGEHTPSALAIMENANVLARYASICQQNGIVPIVEPEILPDGDHDLKRCQYVTEKVLAAVYKALSDHHIYLEGTLLKPNMVTPGHACTQKFSHEEIAMATVTALRRTVPPAVTGITFLSGGQSEEEASINLNAINKCPLLKPWALTFSYGRALQASALKAWGGKKENLKAAQEEYVKRALANSLACQGKYTPSGQAGAAASESLFVSNHAY
modifications: His-tag
As for B1, the Recovery is 0.13 in test [1]; 0.15 in test [4]; 0.15 in test [5]; 0.39 in [6]; 0.18 in test [9]. In addition, the Calculated concentration is 0.14 µg/mL in [2]; 11.7 µg/mL in [3]; 0.51 µg/mL in test [7]; 1.81 µg/mL in test [8]; 0.056 µg/mL in test [10].
